Measured values published in US20170362301A1 (Janssen / Centocor, published 2017).

Key:
[1] = target: T1, EGFR on cells (A431, NCI-H292, NCI-H322, NCI-H441) (human, UniProt P00533 25-1210); test: cell-based or functional assay
[2] = target: T1, EGFR on cells (A431, NCI-H292, …); test: cell-based or functional assay; remark: listed apart in the source
[3] = target: T2, c-Met on cells (NCI-H441, NCI-H292, U87-MG) (human, UniProt P08581 25-1390); test: cell-based or functional assay
[4] = target: T1, EGFR on cells (A431, NCI-H292, …); test: cell-based or functional assay; remark: listed apart in the source
[5] = target: T2, c-Met on cells (NCI-H441, NCI-H292, …); test: cell-based or functional assay; remark: listed apart in the source
[6] = target: T3, EGFR (form in the assay not stated) (human, UniProt P00533 25-645, limits assumed); test: ELISA, NEM conjugate 10 nM (the reference itself)
[7] = target: T3, EGFR (form in the assay not stated); test: ELISA, NEM conjugate 100 nM (the reference itself)
[8] = target: T3, EGFR (form in the assay not stated); test: ELISA, NEM conjugate 500 nM (the reference itself)

T2 sequence (P08581 other isoform, or with tags, fused parts or gaps limits assumed): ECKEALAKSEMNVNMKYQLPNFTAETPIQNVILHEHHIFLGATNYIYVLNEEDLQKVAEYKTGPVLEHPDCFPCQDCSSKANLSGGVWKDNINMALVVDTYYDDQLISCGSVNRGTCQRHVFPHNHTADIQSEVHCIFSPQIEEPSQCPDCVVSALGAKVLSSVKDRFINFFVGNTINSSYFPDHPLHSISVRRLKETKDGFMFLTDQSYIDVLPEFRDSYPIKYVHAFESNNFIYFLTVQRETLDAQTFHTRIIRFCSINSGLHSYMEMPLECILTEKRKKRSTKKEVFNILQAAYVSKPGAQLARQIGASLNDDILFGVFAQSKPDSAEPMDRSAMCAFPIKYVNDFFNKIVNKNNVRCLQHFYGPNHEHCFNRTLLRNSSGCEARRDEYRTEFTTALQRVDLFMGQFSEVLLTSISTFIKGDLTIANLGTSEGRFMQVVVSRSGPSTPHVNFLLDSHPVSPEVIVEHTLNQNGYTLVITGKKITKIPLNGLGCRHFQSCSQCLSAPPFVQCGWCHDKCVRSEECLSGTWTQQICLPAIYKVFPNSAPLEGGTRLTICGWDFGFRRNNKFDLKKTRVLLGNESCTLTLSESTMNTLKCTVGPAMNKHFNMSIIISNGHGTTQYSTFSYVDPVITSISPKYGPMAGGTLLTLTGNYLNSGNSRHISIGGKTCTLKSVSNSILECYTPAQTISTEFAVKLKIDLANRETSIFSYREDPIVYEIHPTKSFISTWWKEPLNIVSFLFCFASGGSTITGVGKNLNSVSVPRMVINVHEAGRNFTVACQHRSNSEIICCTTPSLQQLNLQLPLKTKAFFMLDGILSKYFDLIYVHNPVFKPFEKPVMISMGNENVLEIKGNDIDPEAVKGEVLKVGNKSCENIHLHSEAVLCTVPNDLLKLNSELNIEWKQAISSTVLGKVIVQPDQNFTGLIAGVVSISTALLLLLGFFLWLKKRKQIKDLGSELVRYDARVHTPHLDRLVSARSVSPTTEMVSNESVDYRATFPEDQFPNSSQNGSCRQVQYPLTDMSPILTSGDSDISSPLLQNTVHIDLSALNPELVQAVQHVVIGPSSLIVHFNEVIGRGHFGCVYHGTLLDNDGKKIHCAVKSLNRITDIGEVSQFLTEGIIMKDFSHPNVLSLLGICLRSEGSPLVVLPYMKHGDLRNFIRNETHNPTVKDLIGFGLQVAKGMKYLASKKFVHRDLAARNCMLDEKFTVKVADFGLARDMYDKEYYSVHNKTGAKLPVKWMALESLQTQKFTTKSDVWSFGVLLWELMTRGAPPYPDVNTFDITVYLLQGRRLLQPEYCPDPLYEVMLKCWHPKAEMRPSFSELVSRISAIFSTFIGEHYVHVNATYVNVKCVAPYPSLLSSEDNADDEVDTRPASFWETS

Binder | Phospho-EGFR IC50, A431 cells [2] [nM] | EGF-stimulated EGFR phosphorylation in NCI-H292 cells IC50 [4] [nM] | HGF-stimulated c-Met phosphorylation in NCI-H292 cells IC50 [5] [nM] | other results
ECB5 (designed binder) MLPAPKNLVVSEVTEDSARLSWADPHGFYDSFLIQYQESEKVGEAIVLTVPGSERSYDLTGLKPGTEYTVSIYGVHNVYKDTNMRGLPLSAIFTTGGGGSGGGGSGGGGSGGGGSMLPAPKNLVVSRVTEDSARLSWTAPDAAFDSFWIRYFEFLGSGEAIVLTVPGSERSYDLTGLKPGTEYVVNIMGVKGGKISPPLSAIFTT |  |  |  | fold decrease of IC50 for inhibition of EGFR phosphorylation in NCI-H441 cells against monospecific P53A1R5-17v2 [1]: 30 fold
P54CR4-31 (designed binder) LPAPKNLVVSEVTEDSLRLSWTAPDAAFDSFLIQYQESEKVGEAINLTVPGSERSYDLTGLKPGTEYTVSIYGVLGSYVFEHDVMLPLSAEFTT | 179 |  |  | 
P54AR4-17 (designed binder) LPAPKNLVVSEVTEDSLRLSWTYDRDGYDSFLIQYQESEKVGEAINLTVPGSERSYDLTGLKPGTEYTVSIYGVHNVYKDTNMRGLPLSAEFTT | 184 |  |  | 
P54AR4-48 (designed binder) LPAPKNLVVSEVTEDSLRLSWDDPRGFYESFLIQYQESEKVGEAINLTVPGSERSYDLTGLKPGTEYTVSIYGVHNVYKDTNMRGLPLSAEFTT | 170 |  |  | 
P54AR4-83 (designed binder) LPAPKNLVVSEVTEDSLRLSWDDPWAFYESFLIQYQESEKVGEAINLTVPGSERSYDLTGLKPGTEYTVSIYGVHNVYKDTNMRGLPLSAEFTT | 18 |  |  | 
P54AR4-73 (designed binder) LPAPKNLVVSEVTEDSLRLSWTWPYADLDSFLIQYQESEKVGEAINLTVPGSERSYDLTGLKPGTEYTVSIYGVHNVYKDTNMRGLPLSAEFTT | 141 |  |  | 
P114AR5P74-A5 (designed binder) LPAPKNLVVSRVTEDSARLSWTAPDAAFDSFWIRYDEVVVGGEAIVLTVPGSERSYDLTGLKPGTEYYVNILGVKGGSISVPLSAIFTT |  |  |  | c-Met phosphorylation in NCI-H292 cells IC50 [3]: 610 nM
83v2His6-cys, NEM conjugate (designed binder, NEM on the C-terminal Cys, also called P54AR4-83v2-cys; P54AR4-83v2 parent) MLPAPKNLVVSEVTEDSARLSWDDPWAFYESFLIQYQESEKVGEAIVLTVPGSERSYDLTGLKPGTEYTVSIYGVHNVYKDTNMRGLPLSAIFTTGGHHHHHHC |  |  |  | binding ratio vs parent P54AR4-83v2 [6]: 1 ratio; binding ratio vs parent P54AR4-83v2 [7]: 1 ratio; binding ratio vs parent P54AR4-83v2 [8]: 1 ratio

Now from value to binder, other results behind:

Phospho-EGFR IC50, A431 cells [2] [nM] | EGF-stimulated EGFR phosphorylation in NCI-H292 cells IC50 [4] [nM] | HGF-stimulated c-Met phosphorylation in NCI-H292 cells IC50 [5] [nM] | Binder | other results
 | 2.3 | 1.3 | ECB38 (designed binder) MLPAPKNLVVSEVTEDSARLSWDDPWAFYESFLIQYQESEKVGEAIVLTVPGSERSYDLTGLKPGTEYTVSIYGVHNVYKDTNMRGLPLSAIFTTAPAPAPAPAPLPAPKNLVVSRVTEDSARLSWTAPDAAFDSFWIRYFEFLGSGEAIVLTVPGSERSYDLTGLKPGTEYVVNIMGVKGGKISPPLSAIFTTAPAPAPAPAPLAEAKVLANRELDKYGVSDYYKNLINNAKTVEGVKALLDEILAALP | 
 | 0.9 | 0.4 | ECB147v5-PEG24 (designed binder, PEG24-maleimide on the engineered cysteines) MLPAPKNLVVSEVTEDSARLSWDDPWAFYESFLIQYQESEKVGEAIVLTVPGSERSYDLTGLCPGTEYTVSIYGVHNVYKDTNMRGLPLSAIFTTAPAPAPAPAPLPAPKNLVVSRVTEDSARLSWTAPDAAFDSFWIRYFEFLGSGEAIVLTVPGSERSYDLTGLCPGTEYVVNIMSVKGGSISPPLSAIFTTAPAPAPAPAPLAEAKVLANRELDKYGVSDYYKNLINNAKTVEGVKALLDEILAALP | 
 | 1.4 | 0.5 | ECB147v7-PEG24 (designed binder, PEG24-maleimide on the engineered cysteines) MLPAPKNLVVSEVTEDSARLSWDDPWAFYESFLIQYQESEKVGEAIVLTVPGSERSYDLTGLKPGTEYTVSIYGVHNVYKDTNMRGLPLSAIFTTAPCPAPAPAPLPAPKNLVVSRVTEDSARLSWTAPDAAFDSFWIRYFEFLGSGEAIVLTVPGSERSYDLTGLKPGTEYVVNIMSVKGGSISPPLSAIFTTAPCPAPAPAPLAEAKVLANRELDKYGVSDYYKNLINNAKTVEGVKALLDEILAALP | 
 | 1.6 | 0.5 | ECB147v3-PEG24 (designed binder, PEG24-maleimide on the engineered cysteines) MLPAPKNLVVSEVTEDSARLSWDDPWAFYESFLIQYQESEKVGEAIVLTVPGSERSYDLTGLCPGTEYTVSIYGVHNVYKDTNMRGLPLSAIFTTAPCPAPAPAPLPAPKNLVVSRVTEDSARLSWTAPDAAFDSFWIRYFEFLGSGEAIVLTVPGSERSYDLTGLCPGTEYVVNIMSVKGGSISPPLSAIFTTAPCPAPAPAPLAEAKVLANRELDKYGVSDYYKNLINNAKTVEGVKALLDEILAALP | 
 | 1.4 | 0.4 | ECB147v6-PEG24 (designed binder, PEG24-maleimide on the engineered cysteine) MLPAPKNLVVSEVTEDSARLSWDDPWAFYESFLIQYQESEKVGEAIVLTVPGSERSYDLTGLCPGTEYTVSIYGVHNVYKDTNMRGLPLSAIFTTAPAPAPAPAPLPAPKNLVVSRVTEDSARLSWTAPDAAFDSFWIRYFEFLGSGEAIVLTVPGSERSYDLTGLKPGTEYVVNIMSVKGGSISPPLSAIFTTAPAPAPAPAPLAEAKVLANRELDKYGVSDYYKNLINNAKTVEGVKALLDEILAALP | 
